This assay addresses flag-tagged ErbB2 (Xenopus laevis, wild type) (Xenopus laevis).

Take “recombinant EC1-3 (bacEC) (domain or fragment)”: the phospho-Akt (S473) by western blot, normalised to GFP-myc, in ErbB2-transfected, serum-starved Hek293T cells treated with 10 ng/mL bacEC for 1 to 60 minutes was found to be 20%.

Values taken from PMC5708760.
